The values that follow are results of earlier work, collected in PMC6685676.

Read-outs that look alike come from different tables or passages of the source.

Data set [1] has as its target angiotensin III (Homo sapiens) (UniProt P01019).
Data set [2] shares this target. The source holds these as a separate data set.

UniProt P01019, sequence (P01019 whole entry, looked up): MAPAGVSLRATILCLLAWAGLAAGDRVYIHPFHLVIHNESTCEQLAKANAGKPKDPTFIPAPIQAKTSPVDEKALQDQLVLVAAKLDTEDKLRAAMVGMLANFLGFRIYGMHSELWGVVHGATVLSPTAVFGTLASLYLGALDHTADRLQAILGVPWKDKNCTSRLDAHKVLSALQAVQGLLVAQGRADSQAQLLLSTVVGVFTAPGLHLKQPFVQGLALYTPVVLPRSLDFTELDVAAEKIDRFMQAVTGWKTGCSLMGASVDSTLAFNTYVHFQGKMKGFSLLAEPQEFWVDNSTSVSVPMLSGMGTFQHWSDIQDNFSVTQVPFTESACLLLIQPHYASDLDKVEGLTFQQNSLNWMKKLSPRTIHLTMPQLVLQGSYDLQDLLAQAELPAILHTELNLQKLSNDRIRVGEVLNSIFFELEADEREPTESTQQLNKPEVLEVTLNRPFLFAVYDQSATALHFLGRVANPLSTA

A word on the Ki: it is a measure of affinity in units of concentration, obtained from inhibition or displacement. DPP3 (from UniProt O55096): the Ki in data set [1] was 24 nM.

As to DPP3 (from UniProt Q9NY33), the Ki in data set [2] is 88 nM.
